Read-outs that look alike come from different tables or passages of the source. One block for each molecule: values may come before it.
Experiments:
[1] = molecular target: T1, Rpo41-Mtf1 (yeast mitochondrial RNA polymerase with initiation factor Mtf1) on promoter DNA (Saccharomyces cerevisiae, UniProt P13433); experiment: radiometric gel assay of 2-mer RNA synthesis, Michaelis-Menten fit; format: biochemical; conditions: 21S rRNA AA promoter, [γ-32P]ATP, 1 μM Rpo41, 2 μM Mtf1-Δ20, 10 mM Mg acetate, pH 7.5, 25 °C
T1 construct: assembled on 15S or 21S rRNA promoter DNA; with Mitochondrial transcription factor 1
T1 sequence (P13433 1-1351): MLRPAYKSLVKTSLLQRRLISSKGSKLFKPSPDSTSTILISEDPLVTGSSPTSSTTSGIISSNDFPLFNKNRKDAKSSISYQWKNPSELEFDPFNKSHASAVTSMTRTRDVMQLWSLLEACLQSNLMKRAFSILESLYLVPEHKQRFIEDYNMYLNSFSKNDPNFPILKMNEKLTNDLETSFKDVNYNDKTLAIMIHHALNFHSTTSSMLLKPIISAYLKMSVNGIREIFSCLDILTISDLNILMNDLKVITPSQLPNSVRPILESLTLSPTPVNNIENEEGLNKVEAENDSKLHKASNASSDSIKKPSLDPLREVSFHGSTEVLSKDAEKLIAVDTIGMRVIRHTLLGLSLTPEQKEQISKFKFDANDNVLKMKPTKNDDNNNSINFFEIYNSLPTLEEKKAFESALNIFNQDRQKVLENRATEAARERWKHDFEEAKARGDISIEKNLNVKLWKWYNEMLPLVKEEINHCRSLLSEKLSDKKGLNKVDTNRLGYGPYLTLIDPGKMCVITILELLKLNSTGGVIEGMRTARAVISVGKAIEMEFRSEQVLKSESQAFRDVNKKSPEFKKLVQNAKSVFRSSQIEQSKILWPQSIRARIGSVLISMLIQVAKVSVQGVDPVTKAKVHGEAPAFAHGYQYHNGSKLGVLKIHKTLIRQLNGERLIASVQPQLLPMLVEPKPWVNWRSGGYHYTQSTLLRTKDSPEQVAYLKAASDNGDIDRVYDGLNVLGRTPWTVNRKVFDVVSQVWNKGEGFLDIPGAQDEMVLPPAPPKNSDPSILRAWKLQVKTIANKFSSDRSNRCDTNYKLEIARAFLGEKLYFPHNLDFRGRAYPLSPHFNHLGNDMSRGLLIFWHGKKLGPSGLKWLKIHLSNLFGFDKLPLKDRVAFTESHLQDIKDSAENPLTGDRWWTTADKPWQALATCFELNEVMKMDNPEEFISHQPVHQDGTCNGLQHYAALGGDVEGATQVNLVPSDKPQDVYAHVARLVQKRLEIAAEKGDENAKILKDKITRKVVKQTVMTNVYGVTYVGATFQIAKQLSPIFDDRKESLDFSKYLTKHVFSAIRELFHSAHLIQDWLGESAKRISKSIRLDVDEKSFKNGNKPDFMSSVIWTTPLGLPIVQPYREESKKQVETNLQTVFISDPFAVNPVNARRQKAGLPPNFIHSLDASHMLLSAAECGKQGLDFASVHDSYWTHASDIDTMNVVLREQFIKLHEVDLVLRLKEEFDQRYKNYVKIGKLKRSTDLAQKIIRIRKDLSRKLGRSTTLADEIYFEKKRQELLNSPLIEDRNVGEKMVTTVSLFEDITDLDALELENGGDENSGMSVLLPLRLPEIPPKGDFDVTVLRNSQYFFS
T1 sequence (P14908 2-341 partner): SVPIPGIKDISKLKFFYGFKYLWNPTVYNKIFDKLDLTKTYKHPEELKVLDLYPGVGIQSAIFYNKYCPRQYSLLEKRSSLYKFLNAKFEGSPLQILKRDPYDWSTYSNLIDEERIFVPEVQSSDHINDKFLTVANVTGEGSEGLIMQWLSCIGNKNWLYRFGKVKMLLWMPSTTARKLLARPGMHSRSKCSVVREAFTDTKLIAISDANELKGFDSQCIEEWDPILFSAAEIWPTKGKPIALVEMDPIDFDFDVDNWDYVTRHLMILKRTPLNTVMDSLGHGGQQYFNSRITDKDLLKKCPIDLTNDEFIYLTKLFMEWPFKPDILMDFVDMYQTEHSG

[2] = molecular target: T1, Rpo41-Mtf1 (yeast mitochondrial RNA polymerase with initiation factor Mtf1) on promoter DNA; experiment: 2-aminopurine fluorescence titration, hyperbolic fit; format: binding
[3] = molecular target: T1, Rpo41-Mtf1 (yeast mitochondrial RNA polymerase with initiation factor Mtf1) on promoter DNA; experiment: as above; format: binding; conditions: composite Kd of +1 and +2 initiating ATP; 15S rRNA AA promoter with 2AP at -1 (200 nM), 400 nM Rpo41 and Mtf1-Δ20, 10 mM Mg acetate, pH 7.5, 25 °C
Rpo41;Mtf1-WT [4] = molecular target: T2, Rpo41;Mtf1-WT (Saccharomyces cerevisiae;Saccharomyces …, UniProt P13433;P14908 28-1351;1-341, |); experiment: single-molecule FRET; no initiating nucleotides; EFRET 0.14 to 0.38; 50 mM Tris-acetate pH 7.5, 100 mM potassium glutamate, 10 mM magnesium acetate, 0.01% Tween-20, 25 °C; 5 nM TAMRA-DNA; conditions: protein: recombinant;recombinant; tags: ;; copies: 1;1; label: FRET donor and acceptor (Cy3, Cy5)
[5] = substrate: Nc1ncnc2c1ncn2[C@@H]1O[C@H](COP(=O)(O)OP(=O)(O)OP(=O)(O)O)[C@@H](O)[C@H]1O; experiment: radiometric gel assay of 2-mer RNA synthesis, Michaelis-Menten fit; format: biochemical, Saccharomyces cerevisiae; conditions: 21S rRNA AA promoter, [γ-32P]ATP, 1 μM Rpo41, 2 μM Mtf1, 10 mM Mg acetate, pH 7.5, 25 °C
Rpo41;Mtf1-WT [6] = molecular target: T2, Rpo41;Mtf1-WT; experiment: fluorescence anisotropy; 10 mM Mg acetate; 50 mM Tris-acetate pH 7.5, 100 mM potassium glutamate, 10 mM magnesium acetate, 0.01% Tween-20, 25 °C; 5 nM TAMRA-DNA; conditions: protein: recombinant;recombinant; tags: ;; copies: 1;1; label: TAMRA at 5' end of template strand (strand 2); blunt
Rpo41;Mtf1-Δ20 = Rpo41;Mtf1-Δ20 (Saccharomyces cerevisiae;Saccharomyces …, UniProt P13433;P14908 28-1351;1-321, |); experiment: as above; conditions: protein: recombinant;recombinant; tags: ;; copies: 1;1; label: TAMRA at 5' end of template strand (strand 2); blunt
Rpo41;Mtf1-Δ16 = Rpo41;Mtf1-Δ16 (Saccharomyces cerevisiae;Saccharomyces …, UniProt P13433;P14908 28-1351;1-325, |); experiment: fluorescence anisotropy; 10 mM Mg acetate; Kd in Figure S2C table not in the material; 50 mM Tris-acetate pH 7.5, 100 mM potassium glutamate, 10 mM magnesium acetate, 0.01% Tween-20, 25 °C; 5 nM TAMRA-DNA; conditions: protein: recombinant;recombinant; tags: ;; copies: 1;1; label: TAMRA at 5' end of template strand (strand 2); blunt
Sequence of Rpo41;Mtf1-Δ16 (P14908 1-325, stated change not applied, one chain of several): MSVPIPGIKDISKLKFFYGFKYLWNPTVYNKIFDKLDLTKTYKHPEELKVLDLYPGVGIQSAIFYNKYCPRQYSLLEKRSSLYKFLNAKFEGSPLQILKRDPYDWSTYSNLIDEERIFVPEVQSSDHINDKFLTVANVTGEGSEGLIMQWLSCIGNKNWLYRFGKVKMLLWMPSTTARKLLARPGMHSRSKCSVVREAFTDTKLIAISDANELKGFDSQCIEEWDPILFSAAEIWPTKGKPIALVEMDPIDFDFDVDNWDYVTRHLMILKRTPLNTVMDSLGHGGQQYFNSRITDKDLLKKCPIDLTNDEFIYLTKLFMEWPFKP

Sequence of Rpo41;Mtf1-Δ20 (P14908 1-321, stated change not applied, chain 2 of 2, one chain of several): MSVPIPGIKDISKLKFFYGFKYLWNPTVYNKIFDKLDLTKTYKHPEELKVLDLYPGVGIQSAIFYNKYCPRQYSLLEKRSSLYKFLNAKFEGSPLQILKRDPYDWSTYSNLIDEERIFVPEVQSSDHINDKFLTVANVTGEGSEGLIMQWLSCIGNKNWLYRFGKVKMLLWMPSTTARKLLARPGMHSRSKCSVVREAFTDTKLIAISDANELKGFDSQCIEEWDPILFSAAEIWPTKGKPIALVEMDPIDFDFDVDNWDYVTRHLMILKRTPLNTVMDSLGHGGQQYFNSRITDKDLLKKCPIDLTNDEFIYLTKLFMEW

Km [1]: 364 µM
Kd [2]: 65 µM
Kd [3]: 500 µM
Molecule: Nc1ncnc2c1ncn2[C@@H]1O[C@H](COP(=O)(O)OP(=O)(O)OP(=O)(O)O)[C@@H](O)[C@H]1O [ATP]

B1: smFRET promoter DNA template (position 0) (dsDNA)
DNA 1: TGGCCACGGCAGCGAGGCTATTATATATATAAGTAGTAACAAGTAGAATA
DNA 2: TATTCTACTTGTTACTACTTATATATATAATAGCCTCGCTGCCGTGGCCA
binding result (Rpo41;Mtf1-WT [4]): binds

B2: Rpo41-Mtf1 (yeast mitochondrial RNA polymerase with initiation factor Mtf1) on promoter DNA (Saccharomyces cerevisiae S288C) (protein)
chain: T1 sequence (P13433 1-1351)
notes: assembled on 15S or 21S rRNA promoter DNA; with Mitochondrial transcription factor 1
Km [5]: 165 µM
kcat [5]: 0.4 s⁻¹

B3: 15S rRNA AA promoter -12 to +8 (dsDNA)
DNA 1: TATTATATAAGTAATAAATA
DNA 2: TATTTATTACTTATATAATA
Kd (Rpo41;Mtf1-WT [6]): 0.00012 ± 5e-05 µM
Kd (Rpo41;Mtf1-Δ20): 0.00081 ± 0.0001 µM
binding signal (Rpo41;Mtf1-Δ16): ~7 fold weaker than Mtf1-WT
